The results in this text go back to publication PMC10009750, “Development of Selective ADAMTS-5 Peptide Substrates to Monitor Proteinase Activity” (Journal of Medicinal Chemistry, 2023).

Non-standard residues stand in square brackets, D forms with d. No end group written: not given here. Tyr(3-NO2) = N[C@@H](Cc1ccc(O)c([N+](=O)[O-])c1)C(=O)O; 2Abz = Nc1ccccc1C(=O)O

Holding throughout (type): biochemical
The subject of one experiment is MMP-1 (full length). The experiment can be described thus: Selectivity studies: cleavage of the current substrate by MMP-1. The settings on record: substrate 20 μM, MMP-1 92 nM, up to 72 h, 37 °C; single triplicate experiment. As to the method:
(§1) All proteinase assays were performed at 37 °C in a SpectraMax M5 spectrophotometer (Molecular Devices, San Jose, USA) using a 96-well black microplate (Greiner bio-one, Stonehouse, UK) unless otherwise stated. […] N-TIMP-3 was purified as described previously[30] and CT-1746 was a gift from Dr. Yoshifumi Itoh (Kennedy Institute of Rheumatology, University of Oxford). All analyses were carried out using Prism 9 software (GraphPad, La Jolla, CA, USA).
Selectivity studies are described for Abz-TESE↓SRGAIY-Dpa-KK-NH2, the library parent peptide 3, and hit peptides 18–26. A solution of Abz-TESE↓SRGAIY-Dpa-KK-NH2 (22.22 μM) in freshly prepared TNC buffer with 0.005% (v/v) Brij-35 (90 μL) was added to a 96-well clear bottom microplate (Greiner bio-one, Stonehouse, UK) in triplicate. A substrate-only background control was also added in triplicate (90 μL). The resultant solutions were incubated at 37 °C (30 min). […] The relative fluorescence intensity was measured at 37 °C for 1 h with readings every 20 s. Activity was read from underneath the microplate, which was covered with a low evaporation lid. […] Final rates were expressed as a percentage of substrate cleavage by TS5-5 (mean ± SEM) or in μM s^–1 μM^–1 of proteinase.

Experiment [1] has as its target T1, MMP-2ΔC (catalytic domain of MMP-2) (Homo sapiens, UniProt P08253).
T1 construct: the catalytic domain of MMP-2, i.e., MMP-2ΔC; made in house; host or cells: HEK293 cells (previously transfected stocks)
The experiment can be described thus: Selectivity studies: cleavage of FRET peptide substrates by MMP-2ΔC. The settings on record: substrate 20 μM, MMP-2ΔC 5–10 nM, TNC buffer with 0.005% (v/v) Brij-35, 37 °C; mean of 3–4 independent experiments in triplicate. As to the method: as §1
(§2) Selectivity studies are described for Abz-TESE↓SRGAIY-Dpa-KK-NH2, the library parent peptide 3, and hit peptides 18–26. A solution of Abz-TESE↓SRGAIY-Dpa-KK-NH2 (22.22 μM) in freshly prepared TNC buffer with 0.005% (v/v) Brij-35 (90 μL) was added to a 96-well clear bottom microplate (Greiner bio-one, Stonehouse, UK) in triplicate. A substrate-only background control was also added in triplicate (90 μL). The resultant solutions were incubated at 37 °C (30 min). An ADAMTS or MMP proteinase was added to substrate wells (10 μL) to give a final proteinase concentration of either 50–90 nM (TS4-4), 25–200 nM (TS5-5), 5–10 nM (MMP-2ΔC), 30 nM (MMP-9ΔC), 92 nM (MMP-1), or 3 μM (MMP-3). TNC buffer with 0.005% (v/v) Brij-35 was added to substrate-only control wells (10 μL). The relative fluorescence intensity was measured at 37 °C for 1 h with readings every 20 s. Activity was read from underneath the microplate, which was covered with a low evaporation lid. […] For each ADAMTS and MMP proteinase, the assay was performed 2–4 times. […] Final rates were expressed as a percentage of substrate cleavage by TS5-5 (mean ± SEM) or in μM s^–1 μM^–1 of proteinase.

The target in a further experiment is T2, TS5-5 (ADAMTS-5) (Homo sapiens, UniProt Q9UNA0).
T2 construct: ADAMTS-5 (i.e. TS5-5, residues 264–555); FLAG; made in house; host or cells: HEK293 cells (previously transfected stocks)
T2 sequence (Q9UNA0 264-555): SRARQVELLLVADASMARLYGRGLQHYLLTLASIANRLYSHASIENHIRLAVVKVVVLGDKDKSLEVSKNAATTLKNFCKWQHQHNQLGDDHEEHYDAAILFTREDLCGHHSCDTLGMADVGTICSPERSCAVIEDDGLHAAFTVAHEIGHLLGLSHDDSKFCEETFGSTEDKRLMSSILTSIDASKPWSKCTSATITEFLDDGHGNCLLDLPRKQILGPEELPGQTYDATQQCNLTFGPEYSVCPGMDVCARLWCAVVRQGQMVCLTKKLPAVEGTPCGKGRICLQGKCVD
The experiment can be described thus: Rate of cleavage of 3 and 26 by TS5-5 at different substrate concentrations. The settings on record: TS5-5 57 nM, after 1 h, 37 °C. The procedure: To test whether active TS5-5 had been purified, three concentrations of proteinase were assayed. […] A substrate-only background control was also added in triplicate (180 μL). The resultant solutions were incubated at 37 °C (30 min). […] TNC buffer with 0.02% (v/v) Brij-35 (20 μL) was also added to background control wells. The change in RFU was measured at 37 °C for 1 h, with readings every 20 s. Following subtraction of background fluorescence intensity, linear regression analysis of the linear part of each curve was used to determine the cleavage rate, which was expressed as the mean ± SEM in RFU s^–1. For cases where a single concentration of TS5-5 or TS4-4 was assayed, the same procedure was used but with 0.005% (v/v) Brij-35 and using the 5-FAM-AE↓LQGRPISIAK-TAMRA substrate for TS4-4 (0.56 μM). To convert cleavage rates to nM s^–1 nM^–1, the rate in RFU s^–1 was divided by the final concentration of proteinase (nM), then divided by the gradient of the calibration curve for Abz or 5-FAM (expressed in RFU nM^–1).
This was carried out according to the procedure described for activity studies of ADAMTSs with a single concentration of proteinase, except that a range of substrate concentrations was used for 3 and 26 (20 to 0.63 μM). Additionally, control wells for each substrate concentration were used in single replicate. The final concentration of TS5-5 was 57 nM.

The target in experiment [2] is T3, TS5-5 (combined catalytic and disintegrin domain of ADAMTS-5) (Homo sapiens, UniProt Q9UNA0).
T3 construct: ADAMTS-5 (i.e. TS5-5, residues 264–555); FLAG; made in house; host or cells: HEK293 cells (previously transfected stocks)
T3 sequence (Q9UNA0 264-555): T2 sequence (Q9UNA0 264-555)
Description: Cleavage of FRET peptide substrates by TS5-5 in solution (activity/selectivity studies). The settings on record: substrate 20 μM, 37 °C. As to the method:
as §1
To test whether active TS5-5 had been purified, three concentrations of proteinase were assayed. A solution of Abz-TESE↓SRGAIY-Dpa-KK-NH2 (22.22 μM) in freshly prepared TNC buffer with 0.02% (v/v) Brij-35 (180 μL) was added to a 96-well black microplate in triplicate for each proteinase concentration. A substrate-only background control was also added in triplicate (180 μL). The resultant solutions were incubated at 37 °C (30 min). TS5-5 proteinase in TNC buffer with 0.02% (v/v) Brij-35 (20 μL) was added to wells to give final proteinase concentrations of 80 nM, 40 nM and 20 nM. TNC buffer with 0.02% (v/v) Brij-35 (20 μL) was also added to background control wells. The change in RFU was measured at 37 °C for 1 h, with readings every 20 s. Following subtraction of background fluorescence intensity, linear regression analysis of the linear part of each curve was used to determine the cleavage rate, which was expressed as the mean ± SEM in RFU s^–1. For cases where a single concentration of TS5-5 or TS4-4 was assayed, the same procedure was used but with 0.005% (v/v) Brij-35 and using the 5-FAM-AE↓LQGRPISIAK-TAMRA substrate for TS4-4 (0.56 μM). To convert cleavage rates to nM s^–1 nM^–1, the rate in RFU s^–1 was divided by the final concentration of proteinase (nM), then divided by the gradient of the calibration curve for Abz or 5-FAM (expressed in RFU nM^–1).
as §2

T1 sequence (P08253 110-465 limits assumed, stated change not applied): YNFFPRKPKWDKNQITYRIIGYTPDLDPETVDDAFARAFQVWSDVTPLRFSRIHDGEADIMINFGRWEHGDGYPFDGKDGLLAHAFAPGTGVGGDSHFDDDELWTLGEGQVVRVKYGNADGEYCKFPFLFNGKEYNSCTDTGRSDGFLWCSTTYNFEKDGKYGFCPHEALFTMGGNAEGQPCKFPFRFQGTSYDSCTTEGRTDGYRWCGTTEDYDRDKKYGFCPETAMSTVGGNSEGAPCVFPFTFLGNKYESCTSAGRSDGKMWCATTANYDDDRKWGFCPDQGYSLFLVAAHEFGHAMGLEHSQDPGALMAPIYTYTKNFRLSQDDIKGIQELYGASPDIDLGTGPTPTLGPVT

Take “Abz-TESE↓SRGAIY-Dpa-KK-NH2 [current, ortho-aminobenzoyl(Abz)-TESE↓SRGAIY-N-3-[2,4-dinitrophenyl]-L-2,3-diaminopropionyl(Dpa)-KK-NH2, reference compound]”: the “cleavage by MMP-1” value in the experiment on MMP-1 (full length) is “no cleavage was observed”. In addition, the “rate of cleavage by MMP-2ΔC” value in experiment [1] was found to be 0.56 μM s^–1 μM^–1.

For “KY(NO2)TESESRGK(Abz)IYYKKG (K[Tyr(3-NO2)]TESESRGK(Abz)IYYKKG) [Compound 3]”, the “lowest concentration of substrate detectibly cleaved by TS5-5 (ΔRFU ≥ 300)” value with TS5-5 (ADAMTS-5) came out at 2.5 µM. Further, the “improvement in cleavage (overall cleavage rate) by TS5-5 compared to the current substrate” value in experiment [2] is listed as around 4 fold.

With “KY(NO2)SENESRGK(Abz)IYYKKG (K[Tyr(3-NO2)]SENESRGK(2Abz)IYYKKG) [Compound 26]”, the “lowest concentration of substrate detectibly cleaved by TS5-5 (ΔRFU ≥ 300)” value with TS5-5 (ADAMTS-5) was found to be 5 µM. Besides, the “improvement in cleavage (overall cleavage rate) by TS5-5 compared to the current substrate” value in experiment [2] is listed as around 3 fold.
